Data from US20260275319A1 (MAX PLANCK GESELLSCHAFT ZUR F RDERUNG DER WISSENSCHAFTEN E V, published 2026).
Primed or numbered codes have the meaning given here. Ends that are not written are not given here. FITC′ = fluorescein isothiocyanate label; Ahx = NCCCCCC(=O)O

B1: M. jannaschii Adriase S1A mutant with C-terminal His-tag (enzyme)
chain: ALIICYYGKNGAVIGGDRRQIFFRGSEENRKILEEKLYSGEIKSEEELYKLAEKLNIKIIIEDDREKVRKISDSVVCGEVRSLGIDAKRRRVYATKGKCAIVDILNDTVTNQTIKEGFGIVVLGNRFLKKKAEEELKRTAKLFPMMPIQQIEDAIKEIFEKLKWHPTVSKEYDIYSVNKYEKNFEEVIKKDIESLFKYREQLRKQLIDFGKVMSIVNKIVKNGEIGVIKDGKLHLYDDYIAIDKIDPNPKVFKVVDVEGNFKDGDIVVIENGDMKIKGTNEKVTTKYIIIHKGSHHHHHH
notes: The entry is the S1A mutant itself
B2: (0)KDPGA(10) peptide, M. jannaschii MtrA-derived, C-terminal FITC (peptide)
peptide: KDPGAIDEDPFIIEL-{K(FITC)}
notes: Synthetic peptide (Genscript)
B3: (5)KDPGA(10) peptide, M. jannaschii MtrA-derived, C-terminal FITC (peptide)
peptide: KECLSKDPGAIDEDPFIIEL-{K(FITC)}
notes: Synthetic peptide (Genscript); also called (5)KDPGA(10F)
B4: (10)KDPGA(10) peptide, M. jannaschii MtrA-derived, C-terminal FITC (peptide)
peptide: ITQAIKECLSKDPGAIDEDPFIIEL-{K(FITC)}
B5: (15)KDPGA(10) peptide, M. jannaschii MtrA-derived, N-terminal FITC-Ahx (peptide)
peptide: {FITC′-Ahx}-EDIGKITQAIKECLSKDPGAIDEDPFIIEL
notes: Synthetic peptide (Genscript); also called (F15)KDPGA(10)
B6: M. jannaschii MtrA^Δ194-245 (enzyme)
chain: MHHHHHHGSMVMSMANKREPAPGWPIVSGEYVVGNPESCVGVVTLGSHGLEQACIDAGAAIAGPCHTENLGIEKVVANYISNPNIRFMILCGSEVQGHITGQCFKALWENGIGDDGGIIGAKGAIPFLENVNKEAVERFRRQIVEVVDLIDCEDIGKITQAIKECLSKDPGAIDEDPFIIELEGGKGGGEEEEGVIKPITPE
notes: For MST it was labelled with NT-647-NHS; also called MJ_0851

Tests used:
[1] = target: B6; test: microscale thermophoresis (MST), fitted curve
[2] = target: T1, M. jannaschii MtrA^Δ174-245 with N-terminal His6-tag (Methanocaldococcus jannaschii, UniProt Q58261 1-169); test: microscale thermophoresis (MST), fitted curve, MtrA^Δ174-245
T1 sequence: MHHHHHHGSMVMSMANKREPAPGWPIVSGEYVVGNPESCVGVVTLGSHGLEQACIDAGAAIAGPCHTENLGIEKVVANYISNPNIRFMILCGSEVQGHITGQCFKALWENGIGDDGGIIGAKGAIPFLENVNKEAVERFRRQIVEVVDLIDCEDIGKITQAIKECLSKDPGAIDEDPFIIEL

[3] = target: B3; test: microscale thermophoresis (MST), fitted curve, peptide (5)KDPGA(10)
[4] = target: B2; test: microscale thermophoresis (MST), fitted curve, peptide (0)KDPGA(10)
[5] = target: B5; test: microscale thermophoresis (MST), fitted curve, peptide (15)KDPGA(10)
[6] = target: B4; test: microscale thermophoresis (MST), fitted curve, peptide (10)KDPGA(10)
[7] = target: B1; test: microscale thermophoresis (MST); table row (0)KDPGA(10)
[8] = target: B1; test: microscale thermophoresis (MST); table row (5)KDPGA(10)
[9] = target: B1; test: microscale thermophoresis (MST); table row (10)KDPGA(10)
[10] = target: B1; test: microscale thermophoresis (MST); table row (15)KDPGA(10)
[11] = target: B1; test: microscale thermophoresis (MST), three measurements; table row MtrA
[12] = target: T2, M. jannaschii Adriase with C-terminal His-tag (Methanocaldococcus jannaschii, UniProt Q57968 2-293); test: SDS-PAGE time course of the reaction in the presence of MtrA, band of the covalent conjugate
T2 construct: Active enzyme; also called unmodified Adriase; MJ_0548
T2 sequence: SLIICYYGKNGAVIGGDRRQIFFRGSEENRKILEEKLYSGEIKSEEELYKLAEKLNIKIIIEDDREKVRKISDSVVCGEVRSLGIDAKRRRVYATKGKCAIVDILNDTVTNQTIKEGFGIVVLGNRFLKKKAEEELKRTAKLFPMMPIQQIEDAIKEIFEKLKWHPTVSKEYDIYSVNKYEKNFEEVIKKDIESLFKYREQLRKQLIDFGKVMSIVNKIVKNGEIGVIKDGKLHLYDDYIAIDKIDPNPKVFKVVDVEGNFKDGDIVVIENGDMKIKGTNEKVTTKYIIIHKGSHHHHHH

[13] = target: T3, M. mazei Ub-(5)KDPGA(10) with N-terminal His-tag; test: SDS-PAGE time course of Adriase with Ub-(5)KDPGA(10), band of the covalent conjugate
T3 chain: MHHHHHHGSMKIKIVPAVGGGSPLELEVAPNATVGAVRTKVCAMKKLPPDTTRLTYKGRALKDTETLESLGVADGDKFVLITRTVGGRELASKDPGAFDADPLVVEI

BSA = target: T4, BSA (UniProt P02769 25-607); test: pulldown on Ni-NTA beads with His6-tagged Adriase, SDS-PAGE of flow-through, washes and eluate
T4 construct: also called control protein BSA
T4 sequence (P02769 25-607 limits assumed): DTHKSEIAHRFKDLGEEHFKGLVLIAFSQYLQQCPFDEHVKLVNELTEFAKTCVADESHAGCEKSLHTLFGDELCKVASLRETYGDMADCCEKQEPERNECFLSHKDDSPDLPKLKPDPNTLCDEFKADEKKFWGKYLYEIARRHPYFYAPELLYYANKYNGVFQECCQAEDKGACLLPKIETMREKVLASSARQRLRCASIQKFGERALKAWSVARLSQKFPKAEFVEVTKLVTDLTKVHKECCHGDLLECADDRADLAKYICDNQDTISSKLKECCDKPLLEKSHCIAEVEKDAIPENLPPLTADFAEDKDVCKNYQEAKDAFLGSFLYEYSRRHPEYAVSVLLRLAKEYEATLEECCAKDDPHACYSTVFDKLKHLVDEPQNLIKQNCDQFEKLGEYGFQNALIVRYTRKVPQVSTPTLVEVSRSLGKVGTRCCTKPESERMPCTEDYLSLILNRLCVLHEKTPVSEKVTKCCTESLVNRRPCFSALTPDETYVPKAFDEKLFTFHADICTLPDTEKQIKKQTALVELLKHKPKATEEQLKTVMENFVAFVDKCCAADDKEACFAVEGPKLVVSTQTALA

[14] = target: B6; test: size-exclusion chromatography with light scattering (SEC-MALS) of the 1:1 molar mixture
[15] = target: T5, MtrH of M. mazei (subunit of the MtrA-MtrH complex), from whole cell extract (Methanosarcina mazei); test: pulldown from M. mazei whole cell extract with Strep-tagged Adriase, LC-MS/MS (Experiment 2.1)
T5 sequence (P80650 1-316, looked up): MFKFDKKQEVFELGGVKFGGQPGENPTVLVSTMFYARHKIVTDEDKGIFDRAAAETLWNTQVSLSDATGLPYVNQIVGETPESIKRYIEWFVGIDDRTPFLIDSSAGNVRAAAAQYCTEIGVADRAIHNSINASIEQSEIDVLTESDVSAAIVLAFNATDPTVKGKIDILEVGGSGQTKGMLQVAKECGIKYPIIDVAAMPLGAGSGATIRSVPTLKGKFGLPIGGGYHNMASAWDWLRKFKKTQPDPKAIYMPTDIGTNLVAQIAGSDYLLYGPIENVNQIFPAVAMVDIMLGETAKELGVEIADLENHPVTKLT

[16] = target: T6, MtrG of M. mazei (subunit of the MtrA-MtrH complex), from whole cell extract (Methanosarcina mazei); test: as above
T6 sequence (P80656 whole entry, looked up): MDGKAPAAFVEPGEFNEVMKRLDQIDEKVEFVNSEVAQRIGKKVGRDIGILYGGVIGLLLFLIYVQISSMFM

[17] = target: T7, MtrB of M. mazei (subunit of the MtrA-MtrH complex), from whole cell extract (Methanosarcina mazei); test: as above
T7 sequence (P80655 whole entry, looked up): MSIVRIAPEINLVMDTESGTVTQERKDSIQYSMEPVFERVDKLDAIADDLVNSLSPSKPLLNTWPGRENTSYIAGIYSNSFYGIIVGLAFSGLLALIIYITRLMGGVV

[18] = target: T8, MtrE of M. mazei (subunit of the MtrA-MtrH complex), from whole cell extract (Methanosarcina mazei); test: as above
T8 sequence (P80651 whole entry, looked up): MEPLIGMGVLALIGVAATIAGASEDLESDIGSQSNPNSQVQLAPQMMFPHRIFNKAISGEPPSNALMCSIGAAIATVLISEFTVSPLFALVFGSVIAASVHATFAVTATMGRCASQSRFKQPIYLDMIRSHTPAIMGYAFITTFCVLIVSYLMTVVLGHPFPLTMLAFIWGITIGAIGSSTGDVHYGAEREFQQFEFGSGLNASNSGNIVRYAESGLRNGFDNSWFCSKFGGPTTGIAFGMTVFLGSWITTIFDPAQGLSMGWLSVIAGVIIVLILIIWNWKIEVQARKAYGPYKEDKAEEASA

Binder: B1
- EC50 (read off the curve) [1]: ~200 nM
- EC50 (read off the curve) [2]: ~600 nM
- EC50 (read off the curve) [3]: ~100 nM
- EC50 (read off the curve) [4]: ~400 nM
- EC50 (read off the curve) [5]: ~80 nM
- EC50 (read off the curve) [6]: ~200 nM

Binder: B2
- Kd [7]: 363 nM

Binder: B3
- Kd [8]: 121 nM

Binder: B4
- Kd [9]: 168 nM

Binder: B5
- Kd [10]: 74 nM

Binder: B6
- Kd [11]: 129 nM

B7: M. jannaschii Ub-KDPGA(10) (other)
chain: MHHHHHHGSMKIKIVPAVGGGSPLELEVAPNATVGAVRTKVCAMKKLPPDTTRLTYKGRALKDTETLESLGVADGDKFVLITRTVGGCGEKDPGAIDEDPFIIEL
notes: also called Ubiquitin fused to KDPGA(10)
- binding result [12]: binds

B8: M. mazei Adriase with C-terminal His-tag (enzyme)
chain: TLVIAFIGKNGAVMAGDMREITFEGEKPDREKLEKELYSGSIVTDEEMQKKAEEFGVKITVADCKEKVSERNGVLVGEVSSAEGGVVKKRRLYASAGNFAIAELINTEMTLTSQGKGSNFIAFGNEFTKQVANKCFKDNWTKKSNLQDAVKILILCMETVARKTASVSKQFMIVQTASNADVLKVVEKDRNCGSHHHHHH
notes: Active form without start-methionine; also called M. mazei Adriase-His6; MM_2909
- binding result [13]: binds
- binding result (BSA): no binding

B9: M. jannaschii Adriase without NTN, with C-terminal His-tag (enzyme)
chain: MEQLRKQLIDFGKVMSIVNKIVKNGEIGVIKDGKLHLYDDYIAIDKIDPNPKVFKVVDVEGNFKDGDIVVIENGDMKIKGTNEKVTTKYIIIHKGSHHHHHH
notes: also called Adriase^ΔNTN
- binding result [14]: no binding

B10: M. mazei Adriase with C-terminal Strep-tag (enzyme)
chain: TLVIAFIGKNGAVMAGDMREITFEGEKPDREKLEKELYSGSIVTDEEMQKKAEEFGVKITVADCKEKVSERNGVLVGEVSSAEGGVVKKRRLYASAGNFAIAELINTEMTLTSQGKGSNFIAFGNEFTKQVANKCFKDNWTKKSNLQDAVKILILCMETVARKTASVSKQFMIVQTASNADVLKVVEKDRNCGSWSHPQFEK
notes: also called MM_2909; Archaeal Peptide Recombinase
- Intensity (mass spectrometry) [15]: 6e+07 arbitrary units
- Intensity (mass spectrometry) [16]: 860000 arbitrary units
- Intensity (mass spectrometry) [17]: 1.4e+06 arbitrary units
- Intensity (mass spectrometry) [18]: 2.1e+06 arbitrary units
